Test results published in patent US20200239543A1 (ALX ONCOLOGY, published 2020).
Residue numbers refer to the chain shown, from its start.

T1: rat CD47 (rat, UniProt P97829 19-140, limits assumed)
T1 sequence (looked up): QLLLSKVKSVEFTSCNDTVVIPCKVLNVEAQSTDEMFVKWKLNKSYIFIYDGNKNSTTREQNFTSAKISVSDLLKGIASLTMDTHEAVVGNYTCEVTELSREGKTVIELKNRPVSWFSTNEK

T2: mouse CD47 (mouse, UniProt Q61735 19-140, limits assumed)
T2 construct: also called mouse CD47 protein
T2 sequence (looked up): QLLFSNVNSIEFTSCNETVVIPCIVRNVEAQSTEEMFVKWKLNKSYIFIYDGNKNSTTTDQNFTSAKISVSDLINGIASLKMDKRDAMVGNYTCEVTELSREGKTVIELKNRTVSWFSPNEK

B1: SIRP-α D1 variant fused to Fc variant, SEQ ID NO: 110 (Fc fusion)
chain: EEELQVIQPDKSVLVAAGETATLRCTITSLFPVGPIQWFRGAGPGRELIYNQREGPFPRVTTVSDLTKRNNMDFSIRIGAITPADAGTYYCVKFRKGSPDDVEFKSGAGTELSVRAKPSVECPPCPAPPVAGPSVFLFPPKPKDTLMISRTPEVTCVVVDVSHEDPEVQFNWYVDGVEVHNAKTKPREEQFASTFRVVSVLTVVHQDWLNGKEYKCKVSNKGLPSSIEKTISKTKGQPREPQVYTLPPSREEMTKNQVSLTCLVKGFYPSDIAVEWESNGQPENNYKTTPPMLDSDGSFFLYSKLTVDKSRWQQGNVFSCSVMHEALHNHYTQKSLSLSPGK
B2: SIRP-α D1 variant fused to Fc variant, SEQ ID NO: 109 (Fc fusion)
chain: B1 chain with I27A
B3: SIRP-α D1 variant fused to Fc variant, SEQ ID NO: 108 (Fc fusion)
chain: B1 chain with I27A, E54Q
B4: SIRP-α D1 variant fused to Fc variant, SEQ ID NO: 111 (Fc fusion)
chain: B1 chain with V6I
B5: SIRP-α D1 variant fused to Fc variant, SEQ ID NO: 106 (Fc fusion)
chain: B1 chain with I27A, E54Q, A80N
B6: SIRP-α D1 variant polypeptide of SEQ ID NO: 64 (receptor)
chain: EEELQVIQPDKSVSVAAGESAILHCTVTSLIPVGPIQWFRGAGPARELIYNQREGPFPRVTTVSESTKRENMDFSISISNITPADAGTYYCVKFRKGSPDTEFKSGAGTELSVRAKPS
notes: engineered SIRP-α D1 domain
B7: SIRP-α D1 variant polypeptide of SEQ ID NO: 69 (receptor)
chain: B6 chain with V27I
notes: engineered SIRP-α D1 domain
B8: SIRP-α D1 variant polypeptide of SEQ ID NO: 68 (receptor)
chain: B6 chain with V6I, V27I, I31F
notes: engineered SIRP-α D1 domain
B9: SIRP-α D1 variant polypeptide of SEQ ID NO: 67 (receptor)
chain: B6 chain with V27I, I31F, S66T
notes: engineered SIRP-α D1 domain
B10: SIRP-α D1 variant polypeptide of SEQ ID NO: 65 (receptor)
chain: B6 chain with I31F
notes: engineered SIRP-α D1 domain
B11: SIRP-α D1 variant polypeptide of SEQ ID NO: 66 (receptor)
chain: B6 chain with V27I, I31F
notes: engineered SIRP-α D1 domain
B12: SIRP-α D1 variant fused to Fc variant, SEQ ID NO: 114 (Fc fusion)
chain: EEELQIIQPDKSVLVAAGETATLRCTITSLFPVGPIQWFRGAGPGRVLIYNQRQGPFPRVTTVSDTTKRNNMDFSIRIGNITPADAGTYYCIKFRKGSPDDVEFKSGAGTELSVRAKPSERKSSVECPPCPAPPVAGPSVFLFPPKPKDTLMISRTPEVTCVVVDVSHEDPEVQFNWYVDGVEVHNAKTKPREEQFASTFRVVSVLTVVHQDWLNGKEYKCKVSNKGLPSSIEKTISKTKGQPREPQVYTLPPSREEMTKNQVSLTCLVKGFYPSDIAVEWESNGQPENNYKTTPPMLDSDGSFFLYSKLTVDKSRWQQGNVFSCSVMHEALHNHYTQKSLSLSPGK
B13: SIRP-α D1 variant fused to Fc variant, SEQ ID NO: 115 (Fc fusion)
chain: B12 chain with I6V, I27A, V47E, T66L, I92V
B14: SIRP-α D1 variant fused to Fc variant, SEQ ID NO: 135 (Fc fusion)
chain: EEELQVIQPDKSVLVAAGETATLRCTATSLFPVGPIQWFRGAGPGRELIYNQREGPFPRVTTVSDLTKRNNMDFSIRIGAITPADAGTYYCVKFRKGSPDDVEFKSGAGTELSVRAKPSDKTHTCPPCPAPEAAGAPSVFLFPPKPKDTLMISRTPEVTCVVVDVSHEDPEVKFNWYVDGVEVHNAKTKPREEQYASTYRVVSVLTVLHQDWLNGKEYKCKVSNKALPAPIEKTISKAKGQPREPQVYTLPPSREEMTKNQVSLTCLVKGFYPSDIAVEWESNGQPENNYKTTPPVLDSDGSFFLYSKLTVDKSRWQQGNVFSCSVMHEALHNHYTQKSLSLSPG
B15: SIRP-α D1 variant polypeptide of SEQ ID NO: 78 (receptor)
chain: EEELQIIQPDKSVLVAAGETATLRCTITSLFPVGPIQWFRGAGPGRVLIYNQRQGPFPRVTTVSDTTKRNNMDFSIRIGAITPADAGTYYCIKFRKGSPDDVEFKSGAGTELSVRAKPS
notes: engineered SIRP-α D1 domain
B16: SIRP-α D1 variant polypeptide of SEQ ID NO: 79 (receptor)
chain: B15 chain with I6V, I27A, V47E, T66L, I92V
notes: engineered SIRP-α D1 domain
B17: SIRP-α D1 variant polypeptide of SEQ ID NO: 199 (receptor)
chain: B15 chain with V47E, Q54D, I92V
B18: SIRP-α D1 variant polypeptide of SEQ ID NO: 198 (receptor)
chain: B15 chain with F31Y, V47E, Q54E, I92V
B19: SIRP-α D1 variant polypeptide of SEQ ID NO: 200 (receptor)
chain: B15 chain with V47E, Q54E, I92V, S98I
B20: SIRP-α D1 variant polypeptide of SEQ ID NO: 205 (receptor)
chain: B15 chain with F31R, V47E, Q54E, I92V, S98I
B21: SIRP-α D1 variant polypeptide of SEQ ID NO: 207 (receptor)
chain: B15 chain with F31Y, V47E, Q54D, I92V
B22: SIRP-α D1 variant polypeptide of SEQ ID NO: 80 (receptor)
chain: B15 chain with Q54E
notes: engineered SIRP-α D1 domain
B23: SIRP-α D1 variant fused to Fc variant, SEQ ID NO: 101 (Fc fusion)
chain: EEELQVIQPDKSVLVAAGETATLRCTITSLFPVGPIQWFRGAGPGRELIYNQREGPFPRVTTVSDLTKRNNMDFSIRIGAITPADAGTYYCVKFRKGSPDDVEFKSGAGTELSVRAKPSDKTHTCPPCPAPEAAGAPSVFLFPPKPKDTLMISRTPEVTCVVVDVSHEDPEVKFNWYVDGVEVHNAKTKPREEQYASTYRVVSVLTVLHQDWLNGKEYKCKVSNKALPAPIEKTISKAKGQPREPQVYTLPPSREEMTKNQVSLTCLVKGFYPSDIAVEWESNGQPENNYKTTPPVLDSDGSFFLYSKLTVDKSRWQQGNVFSCSVMHEALHNHYTQKSLSLSPGK
B24: SIRP-α D1 variant fused to Fc variant, SEQ ID NO: 102 (Fc fusion)
chain: B23 chain with V6I
B25: engineered SIRP-α D1 variant construct that does not bind CD47, SEQ ID NO: 215 (Fc fusion)
chain: B23 chain with I27A, F31I, V33R, Q52R, R53K, P56H, A80N
notes: negative control; also called negative control
B26: SIRP-α D1 variant fused to Fc variant, SEQ ID NO: 99 (Fc fusion)
chain: B23 chain with I27A, E54Q

How the values were obtained:
human CD47 [1] = molecular target: T3, human CD47 (human, UniProt Q08722 19-139); test: SPR as in Example 1
T3 construct: extracellular domain; also called CD47 ECD

human CD47 [2] = molecular target: T3, human CD47; test: SPR, 25 C, 1:1 Langmuir fit
human CD47 [3] = molecular target: T3, human CD47; test: SPR (Biacore T100 and ProteOn XPR36)
rat CD47 = molecular target: T1, rat CD47; test: SPR (Biacore T100 and ProteOn XPR36)
mouse CD47 = molecular target: T2, mouse CD47; test: SPR (Biacore T100 and ProteOn XPR36)

T3 sequence (Q08722 19-139 limits assumed): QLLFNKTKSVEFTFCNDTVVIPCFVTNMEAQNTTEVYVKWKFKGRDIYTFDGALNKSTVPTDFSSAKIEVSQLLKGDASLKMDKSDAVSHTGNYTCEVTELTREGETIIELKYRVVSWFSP

Binder | Kd (human CD47 [1]) [nM] | Kd (human CD47 [2]) [nM] | further results
B1 | 0.653 |  | 
B2 | 2.15 |  | 
B3 | 0.478 |  | 
B4 | 0.315 |  | 
B5 | 0.811 |  | 
B6 |  | 5.45 | 
B7 |  | 2.4 | 
B8 |  | 0.251 | 
B9 |  | 0.206 | 
B10 |  | 0.8 | 
B11 |  | 0.47 | 
B12 | 0.0343 |  | 
B13 | 0.498 |  | 
B14 | 3.46 |  | 
B15 |  | 0.0144 | 
B16 |  | 0.217 | 
B17 |  |  | Kd (human CD47 [3]): 1.26 nM; Kd (rat CD47): 10.7 nM; Kd (mouse CD47): 1.25 nM
B18 |  |  | Kd (human CD47 [3]): 0.155 nM; Kd (rat CD47): 9.88 nM; Kd (mouse CD47): 1.41 nM
B19 |  |  | Kd (human CD47 [3]): 0.304 nM; Kd (rat CD47): 14.2 nM; Kd (mouse CD47): 1.17 nM
B20 |  |  | Kd (human CD47 [3]): 0.248 nM; Kd (rat CD47): 4.28 nM; Kd (mouse CD47): 0.569 nM
B21 |  |  | Kd (human CD47 [3]): 1.04 nM; Kd (rat CD47): 5.9 nM; Kd (mouse CD47): 0.88 nM
B22 |  | 0.0472 | 
B23 | 0.89 |  | 
B24 | 0.379 |  | 
B25 |  |  | binding result (human CD47 [3]): no binding; binding result (rat CD47): no binding; binding result (mouse CD47): no binding
B26 | 0.895 |  | 
